We go through two molecules from US5633227, “Secretory leukocyte protease inhibitor as an inhibitor of tryptase” (Miles, Inc., dated 1997).

One may read the Ki as the equilibrium dissociation constant of an inhibitor or competing ligand from its target. A lower Ki goes with tighter binding.

The target in assay [1] is T1, bovine trypsin (bovine, UniProt P00760). The assay can be described thus: GPK-AMC enzyme inhibition assay, Dixon plot, bovine trypsin. How it is done: (§1) Inhibitory activity against tryptase and bovine trypsin was measured using Gly-Pro-Lys-aminomethylcoumarin as a substrate. The reaction was performed in assay buffer that consisted of 0.1M Tris (pH 8.0), 1 µg/ml heparin, 0.02% Triton X-100, with 20 mM CaCl_2 included only in the trypsin assays. The amount of coumarin produced was determined by measuring the fluorescence (ex=370 nm, em=432 nm) on a Perkin-Elmer LS-50B fluorimeter. To measure tryptase activity, 12 µl of a 1 nM solution of tryptase (tetramer) was incubated with either the N- (34 to 650 nM final) or the C-terminal (7–150 nM final) domain of SLPI in 1.0 ml of assay buffer for 5 minutes at 37° C. The reaction was started by the addition of the substrate GPK-AMC (20 or 40 µM final) and the increase in fluorescence was measured over a 2 minute period. In order to measure trypsin activity, 3.3 µl of a 10 µg/ml solution was incubated with either the N- or C- terminal domains of SLPI, and assayed using both 10 and 20 µM GPK-AMC. To determine K_i values, Dixon plots of the form 1/V vs [I] were constructed. These are shown in FIG. 8, and the results are listed in Table V. The K_i values for the inhibition of the tryptase catalyzed cleavage of GPK-AMC by the N- and C-terminal domains were determined to be 290 nM and 4.8 nM, respectively (FIG. 8).

Assay [2] has as its target T1, bovine trypsin. The assay can be described thus: GPK-AMC enzyme inhibition assay with bovine trypsin. How it is done: as §1

Some results are limits rather than exact numbers.

B1: C-terminal domain of SLPI (amino acids 50-107) (other)
chain: PVDTPNPTRRKPGKCPVTYGQCLMLNPPNFCEMDGQCKRDLKCCMGMCGKSCVSPVKA
For B1, the affinity with bovine trypsin [1], expressed as Ki, was 130 nM.

B2: N-terminal domain of SLPI (amino acids 1-49) (other)
chain: SGKSFKAGVCPPKKSAQCLRYKKPECQSDWQCPGKKRCCPDTCGIKCLD
For the molecule B2, the binding result in the assay with bovine trypsin [2] is “no binding (tested: 1800 nM)”. For the same molecule, the Ki with bovine trypsin [1] was greater than 1800 nM.
